Reference: paper PMC9405973, “Altered Conformational Landscape upon Sensing Guanine Nucleotides in a Disease Mutant of Elongation Factor-like 1 (EFL1) GTPase” (Biomolecules, 2022)

Experiments:
[1] = parameters: method as in PMID 25991726, PMID 30780079, PMID 23831625; conditions: wild-type Efl1; cited from earlier work
[2] = test system: Tif6 bound to 60S subunits; experiment: Tif6 release assay with purified yeast components; format: biochemical, Saccharomyces cerevisiae; conditions: 50 nM Efl1 variant, 50 nM Sdo1, 100 µM GTP, 30 °C, 10 min
Procedure: The release of Tif6 (yeast orthologue of eIF6) was performed as previously described in [3, 15]. Reaction mixtures contained 10 nM 60S subunits, 40 nM Tif6, 50 nM Efl1 variant, 50 nM Sdo1, and 100 µM GTP in buffer of 10 mM Tris-HCl at pH 7.4, 75 mM KCl, and 1.5 mM MgCl2 supplemented with RNAse inhibitors (Promega, Madison, WI, USA) and protease inhibitors free of EDTA (GoldBio, St. Louis, MO, USA). GTP was omitted in the negative control, and 50 mM EDTA was added as the positive control to disassemble the 60S ribosomal subunits. Reaction mixtures of 100 µL were incubated at 30 °C for 10 min and added on top of 150 µL of a 30% sucrose cushion prepared in the same buffer. Samples were centrifuged at 476,000× g for 30 min in an Optima tabletop MX ultracentrifuge with a TLA-100 rotor. The top 200 µL (free fraction) was recovered, and the remaining 50 µL was resuspended in 150 µL of the same buffer. Samples were precipitated with 30% trichloroacetic acid, electrophoresed in 10% Tris-glycine SDS-PAGE, transferred to a PVDF membrane, and immunoblotted with antibodies anti-eIF6 (PA531066; Thermo Scientific; dilution 1:3000) and anti-uL3 (OAAB09713; Aviva Systems Biology, San Diego, CA, USA; dilution 1:500) overnight at 4 °C. […] Signals were quantified using programme Image J version 1.8.0. […]

[3] = substrate: Nc1nc2c(ncn2[C@@H]2O[C@H](COP(=O)(O)OP(=O)(O)OP(=O)(O)O)[C@@H](O)[C@H]2O)c(=O)[nH]1; experiment: GTP hydrolysis by PNP-coupled Enzchek phosphate assay (MESG, 360 nm), pH 7.5, 5 mM MgCl2, 6 µM Efl1 alone, Michaelis-Menten fit.; format: biochemical; conditions: 25.0 °C
Procedure: (§1) Finally, we measured the enzyme kinetics of mutant Efl1 R1086Q as an isolated enzyme and bound to Sdo1 using an enzymatic coupled assay with a purine nucleoside phosphorylase (PNP) enzyme. This analysis was extended to another disease mutation (EFL1 M882K) also located in domain IV of the GTPase using the equivalent yeast variant, Efl1 L910K [17]. The Km and kcat kinetic parameters were calculated using non-linear regression assuming a Michaelis–Menten model (Supplementary Table S1). […] The catalytic constant for mutant R1086Q and the wild-type enzyme consisted of 0.67 min^−1, and it was 0.58 min^−1 for mutant Efl1 L910K. […] In line with the proposed role of Sdo1 as a guanine exchange factor of Efl1, previous results have shown that the interaction of wild-type Efl1 with Sdo1 impacted its Km for GTP, decreasing its value 2–3-fold. The Km values for the complexes formed between Sdo1 and Efl1 mutants decreased by half with respect to their cognate-free counterpart and differed from each other. […] The measured Km value comprises all the microscopic rate constants of the individual reactions occurring in the enzyme, which include the binding to the substrate and product and the corresponding conformational changes.
Hydrolysis of GTP was measured using the Enzchek Phosphate Assay kit (Molecular Probes) as described by Webb. […]
Reactions were initiated and the GTPase was added after 3 min. Time courses were followed by recording the change in absorbance at 360 nm in a Cary 60 UV -Vis spectrophotometer (Agilent Technologies). Background absorbance was recorded prior to the addition of the GTPase and subtracted from the sample signals. The slope of the measured time courses corresponded to the GTP hydrolysis rate. […] Data were analysed by nonlinear regression to the M ichaelis-Menten equation with the program Origin Version 5.0 (OriginLab, Co., Northampton, MA). […]
(§2) Maximum emission at 440 nm was replotted as a function of nucleotide concentration and analysed

[4] = Enzyme kinetics of GTP hydrolysis (PNP coupled assay, Michaelis–Menten); format: biochemical, Saccharomyces cerevisiae; conditions: isolated enzyme
Procedure: as §1
Hydrolysis of GTP was measured using the Enzchek Phosphate Assay kit (Molecular Probes) as described by Webb. Standard reactions consisted of 100 µL containing 6 µM of Efl1 R1086Q and Efl1 L910K, 0.3 mM MESG, 1.0 U purine nucleoside phosphorylase (PNP) and the indicated amounts of GTP. Measurements done in the presence of effector protein contained 25 µM of Sdo1.
The reaction buffer consisted of 50 mM HEPES -KOH pH 7.5, 150 mM NaCl, 5 mM MgCl2.
Reactions were initiated and the GTPase was added after 3 min. Time courses were followed by recording the change in absorbance at 360 nm in a Cary 60 UV -Vis spectrophotometer (Agilent Technologies). Background absorbance was recorded prior to the addition of the GTPase and subtracted from the sample signals. The slope of the measured time courses corresponded to the GTP hydrolysis rate. The concentration of releas ed phosphate was estimated using a molar absorption coefficient at 360 nm of 14,386 M -1 cm-1 previously described in [2]. Data were analysed by nonlinear regression to the M ichaelis-Menten equation with the program Origin Version 5.0 (OriginLab, Co., Northampton, MA). […]
M HEPES-KOH pH 7.4, 2.5 mM magnesium acetate, 50 mM sucrose, 2 mM DTT, 0.1 mM PMSF, 0.1 mM benzamidine, 8 mM putrescine, 1 mM spermidine. […]
Dilution at the end of each titration was no longer than 2.5% of the initial volume. Data were corrected for the background signal by subtracting the fluorescence of the same ligand concentration without the GTPase in the reaction mixture.
as §2

B1: Efl1 wild type (Saccharomyces cerevisiae S288C) (protein)
chain: MPRVESETYKRLQNDPSCIRNICIVAHVDHGKTSLSDSLLASNGIISQRLAGKIRFLDARPDEQLRGITMESSAISLYFRVLRKQEGSDEPLVSEHLVNLIDSPGHIDFSSEVSAASRLCDGAVVLVDVVEGVCSQTVTVLRQCWTEKLKPILVLNKIDRLITELQLTPQEAYIHLSKVIEQVNSVIGSFFANERQLDDLFWREQLEKNENAEYIEKDDSGIYFNPTDNNVIFASAIDGWGFNIGQLAKFYEQKLGAKRENLQKVLWGDFYMDPKTKKIINNKGLKGRSLKPLFTSLILENIWKIYQNIITSRDSEMVEKIAKTLNIKLLARDLRSKDDKQLLRTIMGQWLPVSTAVLLTVIEKLPSPLESQTDRLNTILVSESDTAAMDPRLLKAMKTCDKEGPVSAYVSKMLSIPREELPVESKRIASSDELMERSRKAREEALNAAKHAGMVENMAMMDLNDNSKNTSDLYKRAKDTVMTPEVGEQTKPKPSRNNDVFCVVSEPSSALDLEFEYEGEDDSDSQDNFGLDFVPTDIDPNDPLSSMFEYEEEDPLLESIKQISEDVNDEVDDIFDEKEECLVAFARIYSGTLRVGQEISVLGPKYDPKCPEEHIETAIITHLYLFMGKELVPLDVCPSGNIVGIRGLAGKVLKSGTLIEKGVQGVNLAGVNFHFTPIVRVAVEPANPVEMSKLVRGLKLLDQADPCVHTYVENTGEHILCTAGELHLERCLKDLTERFAGIEITHSEPAIPYRETFLSASDMNPPQNSQLGRGVHELLLSQYKITFRTFPLSGKVTDFLSQHQNSIKNILKTSTSSMDPVIESTGSSFLDKKSLLVAFEEVINQEEKSRELLSGFKVKLAGFGPSRVGCNILLSQDNLLGSLFEGTPAAFEYSDSIKNGFQLAVSEGPLANEPVQGMCVLVESVHKMSQDEIESIEDPRYQQHIVDLSGRLITSTRDAIHEAFLDWSPRIMWAIYSCDIQTSVDVLGKVYAVILQRHGKIISEEMKEGTPFFQIEAHVPVVEAFGLSEDIRKRTSGAAQPQLVFSGFECIDLDPFWVPTTEEELEELGDTADRENIARKHMNAIRRRKGLFIEEKVVENAEKQRTLKKN
notes: recombinantly expressed in S. cerevisiae; isolated GTPase
fold decrease of Km for GTP upon interaction with Sdo1 [1]: 2–3 fold | release of Tif6 from the 60S subunit (distribution of Tif6 in free and bound fraction, immunoblot) [2]: Tif6 was enriched in the free fraction | Km [3]: 155 µM | kcat [4]: 0.0112 s⁻¹
